Test results taken from IntAct's records for PubMed 22796944.

B1: Transcription elongation factor SPT5 (Saccharomyces cerevisiae), P27692 (parent)
chain: MSDNSDTNVSMQDHDQQFADPVVVPQSTDTKDENTSDKDTVDSGNVTTTESTERAESTSNIPPLDGEEKEAKSEPQQPEDNAETAATEQVSSSNGPATDDAQATLNTDSSEANEIVKKEEGSDERKRPREEDTKNSDGDTKDEGDNKDEDDDEDDDDDDDDEDDDDEAPTKRRRQERNRFLDIEAEVSDDEDEDEDEEDSELVREGFITHGDDEDDEASAPGARRDDRLHRQLDQDLNKTSEEDAQRLAKELRERYGRSSSKQYRAAAQDGYVPQRFLLPSVDTATIWGVRCRPGKEKELIRKLLKKKFNLDRAMGKKKLKILSIFQRDNYTGRIYIEAPKQSVIEKFCNGVPDIYISQKLLIPVQELPLLLKPNKSDDVALEEGSYVRIKRGIYKGDLAMVDQISENNLEVMLKIVPRLDYGKFDEIDPTTQQRKSRRPTFAHRAPPQLFNPTMALRLDQANLYKRDDRHFTYKNEDYIDGYLYKSFRIQHVETKNIQPTVEELARFGSKEGAVDLTSVSQSIKKAQAAKVTFQPGDRIEVLNGEQRGSKGIVTRTTKDIATIKLNGFTTPLEFPISTLRKIFEPGDHVTVINGEHQGDAGLVLMVEQGQVTFMSTQTSREVTITANNLSKSIDTTATSSEYALHDIVELSAKNVACIIQAGHDIFKVIDETGKVSTITKGSILSKINTARARVSSVDANGNEIKIGDTIVEKVGSRREGQVLYIQTQQIFVVSKKIVENAGVFVVNPSNVEAVASKDNMLSNKMDLSKMNPEIISKMGPPSSKTFQQPIQSRGGREVALGKTVRIRSAGYKGQLGIVKDVNGDKATVELHSKNKHITIDKHKLTYYNREGGEGITYDELVNRRGRVPQARMGPSYVSAPRNMATGGIAAGAAATSSGLSGGMTPGWSSFDGGKTPAVNAHGGSGGGGVSSWGGASTWGGQGNGGASAWGGAGGGASAWGGQGTGATSTWGGASAWGNKSSWGGASTWASGGESNGAMSTWGGTGDRSAYGGASTWGGNNNNKSTRDGGASAWGNQDDGNRSAWNNQGNKSNYGGNSTWGGH
B2: Cell division control protein 73 (Saccharomyces cerevisiae), Q06697 (parent)
chain: MANSLDRLREHLKNGDKLVLKNNEGQSTDDITKATMVETLSSDGSTQDSFPLNEETEIEIDGSLVQLRIIVHCWMNKDSSAADYLADCQNKQLTNVSFLQRTDLINWLSGNTESSQYLKAPGQKGETSDKVDIENKTLAGELSTVKSTTSASLENDSEVSDPVVVETMKHERILVDHNSALRGAKPINFGYLIKDAELKLVQSIKGSLRGSKLPPGHKGAHGRISKTNGSSGGPRKDPIILIPSAASSILTVANIKQFLLESKYVNPRNLPSVPNGLVNIEKNFERISRPIRFIIVDNTRMFTKPEYWDRVVAIFTTGHTWQFNNYQWNSPQELFQRCKGYYFHFAGDSVPQHVQQWNVEKVELDKNKRFKDVEVVRYFWHSLEKELISRGYR
partner: B1 chain
B3: Cell division control protein 73 (Saccharomyces cerevisiae), Q06697 (parent)
chain: B2 chain

Variants of: B1
Conditions: with rtf1_yeast RTF1, P53064
Chain of rtf1_yeast RTF1, P53064 (P53064 whole entry): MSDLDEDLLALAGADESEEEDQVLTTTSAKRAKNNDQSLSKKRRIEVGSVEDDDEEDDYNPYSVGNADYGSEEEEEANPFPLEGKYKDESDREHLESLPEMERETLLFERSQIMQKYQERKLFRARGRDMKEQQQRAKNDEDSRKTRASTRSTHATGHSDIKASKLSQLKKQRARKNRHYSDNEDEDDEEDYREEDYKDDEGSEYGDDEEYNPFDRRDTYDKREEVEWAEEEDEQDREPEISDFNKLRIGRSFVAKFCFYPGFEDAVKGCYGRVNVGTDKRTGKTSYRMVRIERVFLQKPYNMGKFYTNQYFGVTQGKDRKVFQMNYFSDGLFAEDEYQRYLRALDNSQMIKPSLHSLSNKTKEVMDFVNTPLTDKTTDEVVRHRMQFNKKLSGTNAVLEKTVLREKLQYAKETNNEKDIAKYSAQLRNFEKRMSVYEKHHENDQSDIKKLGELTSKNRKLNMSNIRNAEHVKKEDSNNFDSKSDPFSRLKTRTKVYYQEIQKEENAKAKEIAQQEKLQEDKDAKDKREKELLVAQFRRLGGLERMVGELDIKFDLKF
M1D was tested, and the “effect of a mutation on the interaction” value was “decreasing interaction”.

Variants of: B2
Conditions: with spt5_yeast SPT5, P27692
In the case of W380A, the “effect of a mutation on the interaction” value is reported as “disrupting interaction”.
W357A was tested, and the “effect of a mutation on the interaction” value was “disrupting interaction”.

Variants of: B3
Conditions: with rpb1_yeast RPO21, P04050
Chain of rpb1_yeast RPO21, P04050 (P04050 whole entry): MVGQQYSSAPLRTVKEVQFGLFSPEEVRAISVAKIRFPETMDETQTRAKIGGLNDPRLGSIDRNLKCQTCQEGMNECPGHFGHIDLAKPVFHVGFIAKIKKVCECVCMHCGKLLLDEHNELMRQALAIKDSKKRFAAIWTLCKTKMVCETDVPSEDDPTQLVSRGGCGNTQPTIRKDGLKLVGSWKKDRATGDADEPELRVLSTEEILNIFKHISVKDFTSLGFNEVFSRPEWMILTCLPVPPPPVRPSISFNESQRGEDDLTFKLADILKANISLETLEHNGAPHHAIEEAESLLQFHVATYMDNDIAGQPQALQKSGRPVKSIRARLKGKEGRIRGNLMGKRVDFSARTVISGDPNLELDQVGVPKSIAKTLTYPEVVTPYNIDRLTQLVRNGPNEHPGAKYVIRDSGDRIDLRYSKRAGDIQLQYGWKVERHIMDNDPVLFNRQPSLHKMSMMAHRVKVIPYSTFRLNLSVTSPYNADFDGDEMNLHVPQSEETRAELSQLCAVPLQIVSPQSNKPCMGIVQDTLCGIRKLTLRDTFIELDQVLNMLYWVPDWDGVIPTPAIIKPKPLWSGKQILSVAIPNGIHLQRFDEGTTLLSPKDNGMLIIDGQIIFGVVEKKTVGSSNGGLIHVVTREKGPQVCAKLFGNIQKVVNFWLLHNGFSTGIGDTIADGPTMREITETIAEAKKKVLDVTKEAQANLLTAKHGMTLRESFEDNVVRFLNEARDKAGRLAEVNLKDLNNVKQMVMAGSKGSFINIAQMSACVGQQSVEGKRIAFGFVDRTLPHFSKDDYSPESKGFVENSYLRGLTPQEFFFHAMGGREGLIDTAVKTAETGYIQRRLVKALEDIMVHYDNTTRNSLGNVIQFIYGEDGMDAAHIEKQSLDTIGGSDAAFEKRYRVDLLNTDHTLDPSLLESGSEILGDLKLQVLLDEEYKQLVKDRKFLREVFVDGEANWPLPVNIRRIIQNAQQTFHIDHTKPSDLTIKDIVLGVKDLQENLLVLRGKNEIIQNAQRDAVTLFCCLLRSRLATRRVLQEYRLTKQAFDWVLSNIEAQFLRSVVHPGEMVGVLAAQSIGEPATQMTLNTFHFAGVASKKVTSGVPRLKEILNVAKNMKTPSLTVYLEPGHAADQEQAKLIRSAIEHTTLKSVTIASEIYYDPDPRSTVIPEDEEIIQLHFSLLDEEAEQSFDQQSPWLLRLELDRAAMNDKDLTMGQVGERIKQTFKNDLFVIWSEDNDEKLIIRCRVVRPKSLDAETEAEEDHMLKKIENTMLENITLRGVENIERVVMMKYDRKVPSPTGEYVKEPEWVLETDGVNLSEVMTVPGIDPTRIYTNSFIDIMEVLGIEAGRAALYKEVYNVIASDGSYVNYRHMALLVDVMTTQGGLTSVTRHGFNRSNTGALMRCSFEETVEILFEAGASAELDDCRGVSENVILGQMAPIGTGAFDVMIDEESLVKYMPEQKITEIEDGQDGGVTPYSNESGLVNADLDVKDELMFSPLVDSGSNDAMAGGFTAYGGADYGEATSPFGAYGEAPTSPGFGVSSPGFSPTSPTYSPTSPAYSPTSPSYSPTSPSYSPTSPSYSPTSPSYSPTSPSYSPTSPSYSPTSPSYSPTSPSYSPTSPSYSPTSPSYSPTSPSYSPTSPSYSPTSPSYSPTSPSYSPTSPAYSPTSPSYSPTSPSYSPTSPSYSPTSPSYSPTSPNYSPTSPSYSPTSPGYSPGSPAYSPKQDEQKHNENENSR
In the case of W357A, the “effect of a mutation on the interaction” value is reported as “disrupting interaction”.
W380A was tested, and the “effect of a mutation on the interaction” value was “disrupting interaction”.
